Measured values published in US20070185028A1, “Compositions and methods for treatment of protein misfolding and protein aggregation diseases” (priority 2004, published 2007).

Tests used:
Assay type in all cases: biochemical
[1] = test system: βH crystallin; assay: Chaperone assay, thermal aggregation of βH crystallin at 50° C.; conditions: 50:1 molar ratio of peptide:βH crystallin, sixty minutes, 340 nm
Protocol: (§1) The chaperone activity of the peptides was measured as their ability to protect against the thermal aggregation of three chaperone target proteins βH crystallin, ADH and CS in chaperone assays performed at 50° C. (FIG. 19). A non-interactive αB crystallin sequence 111HGKHEERQDE120 was used as the negative control in the chaperone assays (FIG. 19). Based on near and far UVCD, the three target proteins unfolded in the order: CS>>>ADH>>βH crystallin when they were heated at 50° C. for sixty minutes (FIGS. 15 and 16). The thermal aggregation of βH crystallin, ADH and CS was measured as light scattering at λ=340 nm in the presence and absence of each peptide. The chaperone activity of each peptide was calculated as percent protection in which the aggregation of each target protein in the absence of any peptides was set at 0% protection (FIG. 19). The interactive peptides […] and 131LTITSSLSDGV141 were effective inhibitors of aggregation of all three chaperone target proteins.
(§2) A (top left): thermal aggregation of chaperone target proteins βH crystallin, ADH and CS in the absence of peptides was measured as light scattering at λ=340 nm. Each target protein was heated at 50° C. for sixty minutes in the absence or presence of one of the peptides. […] The chaperone activity of each peptide was calculated as percent protection in which the aggregation of each target protein in the absence of any peptides was set at 0% protection. The ability of the 73DRFSVNLDVKHFS85, 131LTITSSLSDGV141 and 111HGKHEERQDE120 to protect against the thermal aggregation of βH crystallin (B: top right), ADH (C: bottom left) and CS (D: bottom right) were tested in vitro (vertical bars). […] A 10:1 molar ratio of peptide:target protein was sufficient in conferring significant protection against the aggregation of CS by 73DRFSVNLDVKHFS85 and 131LTITSSLSDGV141.

[2] = target: ADH (Equus caballus, UniProt P00327); assay: Chaperone assay, thermal aggregation of ADH at 50° C.; conditions: 50:1 molar ratio of peptide:ADH, sixty minutes, 340 nm
Protocol: as §1, §2

[3] = target: T1, CS (Sus scrofa, UniProt P00889); assay: Chaperone assay, thermal aggregation of CS at 50° C.; conditions: 10:1 molar ratio of peptide:CS, sixty minutes, 340 nm
T1 sequence (P00889 28-464): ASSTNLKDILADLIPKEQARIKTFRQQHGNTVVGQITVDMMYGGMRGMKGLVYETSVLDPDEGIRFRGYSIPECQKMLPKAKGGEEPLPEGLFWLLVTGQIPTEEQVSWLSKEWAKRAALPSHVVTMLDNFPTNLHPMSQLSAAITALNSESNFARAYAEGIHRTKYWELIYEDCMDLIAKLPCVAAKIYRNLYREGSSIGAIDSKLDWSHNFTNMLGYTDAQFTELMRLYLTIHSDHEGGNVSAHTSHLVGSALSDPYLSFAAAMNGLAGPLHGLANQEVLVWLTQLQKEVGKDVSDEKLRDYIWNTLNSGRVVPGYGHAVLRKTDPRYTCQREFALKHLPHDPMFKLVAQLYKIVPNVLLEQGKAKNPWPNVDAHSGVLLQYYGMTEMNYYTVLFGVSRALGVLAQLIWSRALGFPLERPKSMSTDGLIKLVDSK
Protocol: as §1
A (top left): thermal aggregation of chaperone target proteins βH crystallin, ADH and CS in the absence of peptides was measured as light scattering at λ=340 nm. […] The chaperone activity of each peptide was calculated as percent protection in which the aggregation of each target protein in the absence of any peptides was set at 0% protection. […]

[4] = target: T2, β2-microglobulin (β2m) (Homo sapiens, UniProt P61769); assay: β2-microglobulin fibrillation ThT assay; conditions: five αB crystallin peptides and control
T2 construct: purchased MP Biomedical
Protocol: Addition of 5.8 μM αB crystallin peptides, ST, DR, LT, HG, and ER decreased the ThT fluorescence of β2m by 40-64%. When the concentration of the αB crystallin peptides was increased to 29 μM and 145 μM, no further decrease in ThT fluorescence was observed. The negative control peptide AT1 had no effect on β2m fibrillation even at a concentration as high as 290 μM. All five αB crystallin peptides inhibited β2m fibrillation at sub-stoichometric and stoichometric concentrations (5.8 μM and 29 μM).
The Thioflavin T (ThT) fluorescence of β2m in the presence of varying concentrations of αB crystallin peptides and controls was measured. […] When the concentration of the peptides was increased to 29 μM (1:1::peptide:β2m), the αB crystallin peptides decreased the ThT fluorescence by 35-65%. When the concentration of the peptides was increased further to 145 μM ([…]), the αB crystallin peptides decreased the ThT fluorescence by 13-27%. […] The formation and inhibition of β2-microglobulin fibrils was verified microscopically.
β2-microglobulin fibrillation ThT assays were performed as described previously. Raman et al., Biochem J 392:573-81, 2005; Ivanova et al., Proc Natl Acad Sci USA 101:10584-9, 2004. Peptides were dissolved to 2 mM in 0.25% DMSO and diluted accordingly, while β2-microglobulin was dissolved in 25 mM sodium acetate, 25 mM sodium phosphate, pH 2.4. For the 5:1::peptide:β2-microglobulin assay, 10 μL of 430 μM peptide was mixed with 10 μL of 86 μM β2-microglobulin, 7 μl of 25 mM sodium acetate, 25 mM sodium phosphate, pH 2.4 and 3 μL of 1 mM ThT. For the 1:1::peptide:β2-microglobulin assay, 10 μL of 86 μM peptide was mixed with 10 μL of 86 μM (2-microglobulin, 7 μl of 25 mM sodium acetate, 25 mM sodium phosphate, pH 2.4 and 3 μL of 1 mM ThT. For the 1:5::peptide:β2-microglobulin assay, 10 μL of 17.2 μM peptide was mixed with 10 μL of 86 μM β2-microglobulin, 7 μl of 25 mM sodium acetate, 25 mM sodium phosphate, pH 2.4 and 3 μL of 1 mM ThT. ThT fluorescence was measured using a Perkin Elmer Victor^3 V plate reader. Assays were performed in 384-well fluorescence plates in duplicates or triplicates. Samples were incubated at 37° C. ThT fluorescence was measured continuously for 180 minutes. The effect of the peptides and APS was calculated as percentage fibril formation relative to β2-microglobulin alone (100%) at the end of 180 minutes.

T2 sequence (P61769 21-119): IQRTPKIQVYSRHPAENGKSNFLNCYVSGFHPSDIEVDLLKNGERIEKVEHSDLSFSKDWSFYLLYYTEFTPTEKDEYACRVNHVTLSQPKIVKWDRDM
ADH, sequence (P00327 whole entry): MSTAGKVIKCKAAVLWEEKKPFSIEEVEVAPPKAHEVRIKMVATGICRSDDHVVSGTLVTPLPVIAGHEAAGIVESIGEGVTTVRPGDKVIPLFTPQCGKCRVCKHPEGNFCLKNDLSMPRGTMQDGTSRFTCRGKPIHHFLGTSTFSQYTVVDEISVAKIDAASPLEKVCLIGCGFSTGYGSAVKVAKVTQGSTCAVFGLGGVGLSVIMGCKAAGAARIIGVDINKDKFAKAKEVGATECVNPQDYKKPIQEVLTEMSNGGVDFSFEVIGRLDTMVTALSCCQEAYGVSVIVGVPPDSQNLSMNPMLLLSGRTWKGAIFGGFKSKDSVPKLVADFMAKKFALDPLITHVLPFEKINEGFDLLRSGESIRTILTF

Sequence	percent protection against thermal aggregation of βH crystallin [1]	percent protection against thermal aggregation of ADH [2]	percent protection against thermal aggregation of CS [3]	effect on β2-microglobulin fibril formation, overall [4]
DRFSVNLDVKHFS	approximately 30%	approximately 30%		
HGKHEERQDE	No protection	No protection	partial protection	most effective inhibitors
LTITSSLSSDGV				most effective inhibitors
